# Assay: yeast display, Sf9 membrane polyspecificity reagent, FACS + sequencing; frameworks hold sequencing errors
# How it was run: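 Galactose-induced (36–48 hours) yeast carrying a synthetic nanobody display library were exposed to 10% biotinylated, detergent-solubilized Sf9 membrane reagent at 4 °C for 1 hour. FACS followed streptavidin microbead enrichment, using low and high (top ~1%) gates for expression (anti-HA) and reagent binding (streptavidin). Colony PCR, MiSeq 2 × 250 sequencing and CDR-length filtering followed. Labels for polyreactivity reflect the gate of origin.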
row,Sequence,polyreactivity (PSR sort gate)
1,QVQLVESGGGLVQAGGSLRLSCAASGRTFHRYAMGWYRQAPGKERELVAAITYRGGRTYYADSVKGRFTISRDNANNTVYLQMNSLKPEDTAVYYCNTTQYSPIHDPGDYWGQGTQVTVSS,low polyreactivity
2,QVQLVESGGGLVQAGGSLRLSCAASGRTFHSNAMGWYRQAPGKERELFAAISYSGGSTYYADSVKGRFTISRDNAKNTVYLQMNSLKPEDTAVYYCNAGAVHKKPARDYWGQGTKVTVSS,low polyreactivity
3,QVQLVESGGGLVQAGGSLRLSCAASGRTFHSNAMGWYRQAPGNDRELVASSRRGSRTYYADSVKGRFTISRDNAKNTVSLQLTSLKPEDTAVYYCAAAQVGYYVGSVTYGYWGQATQVTVSS,high polyreactivity
4,QVQLVESGGGLVQAGGSLRLSCAASGRTFHTYAMGWYRQAPGKERELVARITRSGTSTYYADSVKGRFTISRDNAKNTVYLQMNSLKPEDTAVYYCAKPWFLWGYSTSYDWGQGTQVTVSS,high polyreactivity
5,QVQLVESGGGLVQAGGSLRLSCAASGRTFHVYAMGWYRQAPGKERELVATITDGSTNYADSVKGRFTISRDNAKNTVYLQMNRLKPEDNAVYYCATVRDWIPSGDYEYWGQCTQVTVSS,low polyreactivity
6,QVQLVESGGGLVQAGGSLRLSCAASGRTFHWYAMGWYRQAPGKERELVAAIRYSAGSTYYADSVKGRFTISRDNAKNTVYLQMNSLKPEDTAVYYCAAEPYPYGPYYFLWLRYDYWGQGTQVTVSS,low polyreactivity
7,QVQLVESGGGLVQAGGSLRLSCAASGRTFHYNAMGWYRQAPGKERELVAAISFNGGGTYYADSVKGRFTISRDNAKNTVYLQMNSLKPEDTAVYYCNVDAAGSNSHARHDSWGQGTQVTVSS,low polyreactivity
8,QVQLVESGGGLVQAGGSLRLSCAASGRTFHYYAMGWYRQAPGKERELVAAISRGGNTYYADSVKGRFTISRDNAKNTVYLQMNSLKPEDTAVYYCAKDNHFEAYRYDYWGQGTQVTVSS,high polyreactivity
9,QVQLVESGGGLVQAGGSLRLSCAASGRTFHYYAMGWYRQAPGKERELVAAITSSGGSTYYADSVKGRFTISRDNANNTVYLQMNSLKPEDTAVYYFNAYSSYIKYDYWGQGTQVTVSS,high polyreactivity
10,QVQLVESGGGLVQAGGSLRLSCAASGRTFIANAMGWYRQAPGKERELVAVITLNGGSTYYADSVKGRFTISRDNAKSTVYLQMISLKPEDTAVYYCAAGRYYNLRATHGYWGQGTQVTVSS,low polyreactivity
11,QVQLVESGGGLVQAGGSLRLSCAASGRTFIAYGMGWYRQAPGKERELVAAISRNGASTYYADSVKGRFTISRDNAKNTVYLQMNSLKPEDNAVYYCAAGYIRSRGGRWTHSGYWGQGTQVTVSS,high polyreactivity
12,QVQLVESGGGLVQAGGSLRLSCAASGRTFIGYAMGWYRQAPGKERELVATISVSGGSTYYADSVKGRFTISRDNAKNTVYLQMNSLTPVDTAVYYCADDPRYLQSWRGEFAGESWGQGTQVTVAS,low polyreactivity
13,QVQLVESGGGLVQAGGSLRLSCAASGRTFIGYNMGWYRQAPGKERELVAAITWNGGRTYYADSVKGRFTISRDNAKNTVYLQMNSLKPEDTAVYYCAAPRRVVIGGGDYWGQGTQVTVSS,high polyreactivity
14,QVQLVESGGGLVQAGGSLRLSCAASGRTFIINGMGWYRQAPGKERELVAAITTSGGSTYYADSVKGRFTISRDNAKNTVYLQMNSLKPEDTAVYSCAADVFSRKYLYGDYDYWGQGTQVTVSS,high polyreactivity
15,QVQLVESGGGLVQAGGSLRLSCAASGRTFIQYAMGWYRQAPGKERELVAAISLSGGSTYYADSVKGRFTISRDNAKNTVYLQMNSLKPEDTAVYYCNAGYYWGQGTQVTVSS,high polyreactivity
16,QVQLVESGGGLVQAGGSLRLSCAASGRTFIRNAMGWYRQAPGKERELVAAITRSGGSTYYADSVKGRFTISRDNAKNTVYFQMNSLKPEDTAVYYCAAQPFYYLVGVPDDYWGQGTHVTVSS,low polyreactivity
17,QVQLVESGGGLVQAGGSLRLSCAASGRTFIWYAMGWYRQAPGKERELVAAISYSGASTYYADSVKGRFTNSRDNAKNTVYLQMNSLKPEDTAVYYCYPLGTYSYDYWGQGTQVTVSS,high polyreactivity
18,QVQLVESGGGLVQAGGSLRLSCAASGRTFIYYAMGWYRQAPGKEREFVAIISWNGTSTNYADSVKGRFTISRDKAKNTVYLQMNSLKPEDTAVYYCAASFWSDYYRYDYWGQGTQVTVSS,low polyreactivity
19,QVQLVESGGGLVQAGGSLRLSCAASGRTFKDYAMGWYRQAPGKERELVAAISWSGGDTYYADSVKGRFTISRDNAKNTVYLQMNRLKPEDTAVYYCNADPSGVFFYSLEFDYWGQGTQVTVSS,low polyreactivity
20,QVQLVESGGGLVQAGGSLRLSCAASGRTFKGYVMGWYRQAPGKERELVAAITYGGGSTYYADSVKGRFTISRDNAKNTVYLQMNSLKPEDTAVYYCAADSIYGTKYDYWGQGTQVTVSS,high polyreactivity
21,QVQLVESGGGLVQAGGSLRLSCAASGRTFKHNAMGWYRQAPGKERELVAAINQSGSSTYYADSVKGRFTISRDNAKNTVYLQMNSLKPEDTAVYYCAAGVFFFTFDYWGQGTQVTVSS,low polyreactivity

row,Sequence,polyreactivity (PSR sort gate)
1,QVQLVESGGGLVQAGGSLRLSCAASGRTFKHYAMGWYRQAPGKERELVAGISRGGGITYYADSVKGRFTISRDNAKNTVYLQMNSLKPDDTAVYYCNAYDLYKSGGDYWGQGTQVTVSS,high polyreactivity
2,QVQLVESGGGLVQAGGSLRLSCAASGRTFKKYAMGWYRQAPGKEREMVAAITGSGGSTYYADSVKRRFTISRDNAKNTVYLQMNSLKPEDTAVYYCAAYAYGVWHSQDGGNYWGQGTQVTVSS,low polyreactivity
3,QVQLVESGGGLVQAGGSLRLSCAASGRTFKLNAMGWYRQAPGKERELVAAISRNGGSTYYADSVKGRFTISRDNAKNTVYLQMTSLKPEDTAVYYCAAVRHGVSLAGYYWGQGTQVTVSS,high polyreactivity
4,QVQLVESGGGLVQAGGSLRLSCAASGRTFKLYAMGWYRQAPGKERELVAAITESGGSTYYAVSVKGRFTISRDNAKNTVYLQMNSLKPEDTAVYYCAAYASAGTRGGYDYWGQGTQVTVSS,low polyreactivity
5,QVQLVESGGGLVQAGGSLRLSCAASGRTFKRNAMGWYRQAPGKERELVAAISSDGRTNYADSVKGRFTISRDNAKNTVYLQMNSLKPEDTAVYYCAASYVLSYGTYYYWGQGTQVTVSS,low polyreactivity
6,QVQLVESGGGLVQAGGSLRLSCAASGRTFKRNAMGWYRQAPGKERELVAGISGSGTTTYYADSVKGRFTISRDNAKNTVYLQMNSLKPEDTAVYYCAARALSHGARYDYWGQGTQVTVSS,high polyreactivity
7,QVQLVESGGGLVQAGGSLRLSCAASGRTFKRYAMGWYRQAPGKERELVAAITWSGGNTYYADSVKGRFTISRDNAKNTVYLQINSLKPEDTAVYYCAAKGAGRRYDSWGQGTQVTVSS,high polyreactivity
8,QVQLVESGGGLVQAGGSLRLSCAASGRTFKSYAMGWYRQAPGKERELVAAISKRGGSTYYADSVKGRFTISRDNAKNTVYLQMNSLKPADTAVYYCNKLYLKPGRYYYWGQGTQVTVSS,high polyreactivity
9,QVQLVESGGGLVQAGGSLRLSCAASGRTFKVYAMGWYRQAPGKERELVAAITGGGSTNYADSVKGRFTISRDNAKNTVYLQMNSLKPEDTAVYYCNARYYYRLVKWSRFSSYDYWGQGTQVTVSS,low polyreactivity
10,QVQLVESGGGLVQAGGSLRLSCAASGRTFKYNAMAWYRQAPGTERELVADISYSGDSTYYADSVKGRFTISRDNAKNTVYLQMNSLKPEDTAVYYCNAVLTHGRLWRAHGYWGQGTQVTVSS,high polyreactivity
11,QVQLVESGGGLVQAGGSLRLSCAASGRTFKYNAMGWYRPAPGKERELVAAISSTGSTNYADSVKGRFTISRDNAKNTVYLQMNSLKPEDTAVYYCAASYFFVQWGWYYYWGQGTQVTVSS,low polyreactivity
12,QVQLVESGGGLVQAGGSLRLSCAASGRTFKYNAMGWYRQAPGKERELVAAIRKSGTRTYYADSVKGRFTISRDNAKNTVYLQMNSLKPEDTAVYYCNRVGFDYWGQGTQVTVSS,low polyreactivity
13,QVQLVESGGGLVQAGGSLRLSCAASGRTFKYNAMVWYRQAPGKERELVATISGSGGRKYYADSVKGRFTISRDNAKNTVYLQMNSLKPEDTAVYYCKAPRVKWLDWGQGTKVTVSS,high polyreactivity
14,QVQLVESGGGLVQAGGSLRLSCAASGRTFKYNSMGWYRQAPGKERELVAAITRSGSTYYADSVKGRFTISRDNAKNTVYLQMNSLKPEDTAVYYCNARIVNYGSYYYWGQGTQVTVSS,high polyreactivity
15,QVQLVESGGGLVQAGGSLRLSCAASGRTFKYNVMGWYRQAPGKERELVAAISSGGGTNYADSVKGRFTISRDNAKNTVYLQMNSLKPEDTAVYYCAAKYAWRLLEMYYWGQGTQVTVSS,low polyreactivity
16,QVQLVESGGGLVQAGGSLRLSCAASGRTFKYYAMGWYRQAPGKERELVAAISLSSGRTYYADSVKGRFTISRDIAKNTVYLQMNSLKPEDTAVYYCARVTTGGYEYWGQGTQVTVSS,high polyreactivity
17,QVQLVESGGGLVQAGGSLRLSCAASGRTFKYYAMGWYRQAPGKERELVAAISNGGRTNYADSVKGRFTISRDNAKNTVYLQMNSLKPEDTAVYYCAKRSFYFSDYDYWGQGTQVTVSS,high polyreactivity
18,QVQLVESGGGLVQAGGSLRLSCAASGRTFKYYAMGWYRQAPGKERELVATISFRGGSTYYADSVKGRFTISRDNAKNTVYLQMNSLKPEDTSVYYCARRQWSRRPDDYWGQGTQVTVSS,high polyreactivity
19,QVQLVESGGGLVQAGGSLRLSCAASGRTFKYYAMGWYRQAPGKERELVATITWSGTSTNYADSVKGRFTISRDTANNSVYLQMNSLKPEDTAVYYCAARSKRRNYDYWGQGTQVTVSS,high polyreactivity
20,QVQLVESGGGLVQAGGSLRLSCAASGRTFKYYTMGWYRQAPGKEREFVAAITSSGGRTYYADSVKGRFTISRDNAKNTVYLQMNSLKPEDTAVYYCAASTYRVWLAPATLSRYDYWGQGTQVTVSS,high polyreactivity

# Source: the nanobody polyreactivity screen of Harvey et al. (2022)
